{"source": "patent US20150306193", "target": "T1, purified mouse serpinB13 (GenScript) (UniProt Q8CDC0)", "T1 sequence": "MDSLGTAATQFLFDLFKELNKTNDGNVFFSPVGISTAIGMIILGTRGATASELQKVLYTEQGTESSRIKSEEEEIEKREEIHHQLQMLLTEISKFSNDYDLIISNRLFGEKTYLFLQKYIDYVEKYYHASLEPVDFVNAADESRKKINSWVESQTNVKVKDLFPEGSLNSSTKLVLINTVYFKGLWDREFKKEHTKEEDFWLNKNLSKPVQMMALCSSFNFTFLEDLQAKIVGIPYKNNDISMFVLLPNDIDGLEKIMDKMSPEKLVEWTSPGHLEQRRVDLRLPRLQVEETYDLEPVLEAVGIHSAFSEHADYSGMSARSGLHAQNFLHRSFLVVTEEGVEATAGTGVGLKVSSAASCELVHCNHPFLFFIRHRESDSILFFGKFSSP", "data": [{"substance": "Cathepsin L (Calbiochem)", "values": [{"measurement": "cleavage of (CBZ-Phe-Arg)2-R110 substrate by cathepsin L in the presence of serpinB13 (fold induction of maximum fluorescence over background)", "value": "cathepsin L-mediated cleavage of the fluorescent substrate (CBZ-Phe-Arg)2-R110 from inhibition by serpinB13 in vitro"}]}]}
